# From the supplement of paper PMC10567573
# B1: FUT8 (parent)
# chain: NWRYATGGWETVFRPVSETCTDRS
# B2: CPXM2 (parent)
# chain: EILGCPLPDPNNYYHRRNEMTTTD
# Variants of: B1
# Experiment: protein stability index of a GFP-peptide fusion (GPS, HEK-293T) (PSI 1-6); higher = more stable
# Conditions: c terminus: a fixed tail appended
# 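Note: lentivirally expressed fusions sorted by FACS into six bins by GFP to DsRed ratio, PSI derived from sequencing read proportions per bin multiplied by bin number.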
row,Variant,protein stability index
1,S24F,1.88
2,S24A,1.69
3,S24N,2.44
4,S24T,2.03
5,S24H,1.64
6,S24I,1.71
7,S24D,1.76
8,S24P,2.33
9,T19R,2.24
10,T19C,1.42
11,T19Y,3.12
12,T19K,1.84
13,T19S,2.5
14,T19P,1.83
15,T19Q,2.37
16,T19E,2.86
17,T19L,2.3
18,T19I,2.22
19,T19F,1.85
20,T19N,2.09
21,T19M,1.21
22,T19G,2.72

# Variants of: B2
# Experiment: as above
# Conditions: c terminus: a fixed tail appended
row,Variant,protein stability index
1,P8E,3.88
2,P8F,2.61
3,P8S,3.17
4,G4Q,3.5
5,E1W,1.86
6,T21S,3.52
7,C5N,3.61
8,N18I,2.79
9,N18L,2.51
10,N18Q,3.7
11,R16G,4
12,R16S,4.14
13,R16I,3.21
14,N12S,3.09
15,N12G,2.85
16,N12Y,3.35
17,H15Y,3.16
18,H15D,4.42
19,H15L,3.21
20,H15Q,3.96
21,P6F,1.91

row,Variant,protein stability index
1,P6W,2.46
2,D9G,3.03
3,D9H,2.39
4,D9I,2.59
5,D9V,3.04
6,D9Q,3.35
7,Y13L,3.58
8,L7Y,3.61
9,L7S,4.14
10,D24V,3.02
11,T23N,3.48
12,T23P,3.67
13,T23S,3.39
14,L3I,3.58
15,T22F,2.77
16,T22D,4.09
17,T22C,3.15
18,T22K,3.54
19,I2Y,3.77
20,I2W,3.82
21,I2H,4.64

row,Variant,protein stability index
1,I2G,5.13
2,R17T,4.19
3,R17N,4.04
4,R17M,3.8
5,Y14A,4.18
6,Y14C,4.04
7,Y14F,3.69
8,Y14G,4.13
9,Y14H,3.84
10,N11H,3.19
11,N11Q,3.73
12,N11R,3.04
13,N11A,3.43
14,N11L,2.98
15,N11F,2.96
16,E19H,3.1
17,E19C,2.8
18,E19G,3.59
19,P10D,3.88
20,P10C,3.26
